These results are taken from FireProtDB (doi:10.1021/bi962155i).

The conditions of the series: Saccharomyces cerevisiae (strain ATCC 204508 / S288c), pH 5, CD, Sodium acetate buffer, reversible: yes.

Several values for one entry are separate records, joined by “and”; a condition that tells them apart may be missing. Identical values can stand only once.

Sequence of Cytochrome c isoform 1 wild type, P00044 (P00044 whole entry, canonical isoform): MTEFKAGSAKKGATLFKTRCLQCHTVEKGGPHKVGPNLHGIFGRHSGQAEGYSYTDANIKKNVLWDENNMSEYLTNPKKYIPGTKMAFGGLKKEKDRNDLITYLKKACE

“Cytochrome c isoform 1 wild type, P00044”: under “5 °C, GdnHCl”, the denaturant m value came to 5.4 kcal/mol/M, the “denaturant midpoint (higher = more stable)” value was found to be 1.4 M and the unfolding free energy came out at 7.8 kcal/mol. Moreover, the “unfolding enthalpy (calorimetric)” value (Thermal) is 91.8 kcal/mol and 42.8 kcal/mol.
